Reference: patent publication US6949624

Legend:
[1] = target: AML1/ETO chimeric fusion protein (UniProt Q01196); assay: cell-based or functional assay
[2] = target: human nuclear receptor co-repressor (HuN-CoR), 2,440 amino-acid polypeptide (human) (UniProt O75376); assay: cell-based or functional assay
Sequence of UniProt O75376 (O75376 other isoform, or with tags, fused parts or gaps limits assumed): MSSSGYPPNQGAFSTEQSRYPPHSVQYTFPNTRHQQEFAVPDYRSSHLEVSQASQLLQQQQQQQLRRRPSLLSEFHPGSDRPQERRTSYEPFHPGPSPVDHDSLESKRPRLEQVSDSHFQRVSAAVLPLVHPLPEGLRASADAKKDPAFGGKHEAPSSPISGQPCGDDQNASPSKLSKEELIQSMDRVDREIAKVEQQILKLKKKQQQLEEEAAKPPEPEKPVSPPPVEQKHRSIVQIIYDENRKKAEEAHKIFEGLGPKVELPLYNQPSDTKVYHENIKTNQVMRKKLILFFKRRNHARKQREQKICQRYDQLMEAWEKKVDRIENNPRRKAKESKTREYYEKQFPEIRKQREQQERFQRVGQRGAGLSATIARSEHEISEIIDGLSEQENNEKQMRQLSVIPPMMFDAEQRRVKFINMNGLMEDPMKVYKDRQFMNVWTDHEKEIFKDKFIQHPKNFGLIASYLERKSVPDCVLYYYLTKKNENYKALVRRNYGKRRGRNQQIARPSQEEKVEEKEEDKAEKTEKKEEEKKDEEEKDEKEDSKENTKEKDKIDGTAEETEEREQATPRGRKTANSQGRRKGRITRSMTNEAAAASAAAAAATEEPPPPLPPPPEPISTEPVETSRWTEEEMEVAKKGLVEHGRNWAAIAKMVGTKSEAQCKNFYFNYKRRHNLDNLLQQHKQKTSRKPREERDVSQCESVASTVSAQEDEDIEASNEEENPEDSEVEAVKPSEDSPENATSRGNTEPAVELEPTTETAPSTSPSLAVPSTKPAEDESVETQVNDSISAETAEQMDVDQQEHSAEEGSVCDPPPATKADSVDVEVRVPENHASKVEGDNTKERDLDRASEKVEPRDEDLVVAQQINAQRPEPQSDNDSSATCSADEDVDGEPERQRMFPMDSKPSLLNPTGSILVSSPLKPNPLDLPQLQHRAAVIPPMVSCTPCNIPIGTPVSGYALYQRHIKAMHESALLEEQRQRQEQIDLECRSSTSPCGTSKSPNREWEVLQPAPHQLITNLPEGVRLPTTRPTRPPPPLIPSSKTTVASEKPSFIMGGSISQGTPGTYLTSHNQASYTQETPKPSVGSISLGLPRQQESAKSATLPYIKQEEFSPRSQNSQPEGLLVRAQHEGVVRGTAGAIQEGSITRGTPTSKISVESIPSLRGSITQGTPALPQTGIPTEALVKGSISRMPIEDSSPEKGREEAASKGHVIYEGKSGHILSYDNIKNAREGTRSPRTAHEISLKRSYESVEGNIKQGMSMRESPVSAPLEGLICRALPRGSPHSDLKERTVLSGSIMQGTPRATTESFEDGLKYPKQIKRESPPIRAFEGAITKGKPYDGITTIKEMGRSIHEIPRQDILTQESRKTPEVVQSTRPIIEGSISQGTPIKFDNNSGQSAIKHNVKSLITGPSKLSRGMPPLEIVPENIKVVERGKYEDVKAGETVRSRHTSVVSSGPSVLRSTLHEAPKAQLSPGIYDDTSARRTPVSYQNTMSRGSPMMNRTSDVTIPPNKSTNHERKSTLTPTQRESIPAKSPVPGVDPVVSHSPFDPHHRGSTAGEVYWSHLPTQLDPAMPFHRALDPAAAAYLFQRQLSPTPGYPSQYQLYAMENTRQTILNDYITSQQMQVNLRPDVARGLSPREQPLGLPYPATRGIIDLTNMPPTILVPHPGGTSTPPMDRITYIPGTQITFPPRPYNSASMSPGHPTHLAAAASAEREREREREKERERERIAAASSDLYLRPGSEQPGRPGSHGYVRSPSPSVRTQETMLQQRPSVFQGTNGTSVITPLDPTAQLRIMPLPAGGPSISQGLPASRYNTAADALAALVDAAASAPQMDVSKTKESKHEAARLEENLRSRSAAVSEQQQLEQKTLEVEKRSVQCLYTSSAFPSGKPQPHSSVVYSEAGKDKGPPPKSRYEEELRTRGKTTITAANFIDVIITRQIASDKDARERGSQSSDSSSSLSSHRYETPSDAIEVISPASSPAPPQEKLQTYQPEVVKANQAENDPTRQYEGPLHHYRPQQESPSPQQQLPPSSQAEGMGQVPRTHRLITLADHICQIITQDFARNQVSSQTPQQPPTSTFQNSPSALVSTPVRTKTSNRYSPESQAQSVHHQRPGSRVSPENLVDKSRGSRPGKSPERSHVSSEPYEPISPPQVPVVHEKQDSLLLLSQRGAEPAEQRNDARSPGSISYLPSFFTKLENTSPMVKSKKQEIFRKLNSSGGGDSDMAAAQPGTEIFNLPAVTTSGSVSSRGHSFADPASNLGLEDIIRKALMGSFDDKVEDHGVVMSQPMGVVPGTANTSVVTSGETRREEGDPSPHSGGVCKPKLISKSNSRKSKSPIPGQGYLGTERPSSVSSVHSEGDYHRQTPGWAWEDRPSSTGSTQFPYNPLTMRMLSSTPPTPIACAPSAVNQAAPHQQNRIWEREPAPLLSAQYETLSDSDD

Sequence of UniProt Q01196 (Q01196 other isoform, or with tags, fused parts or gaps mutant limits assumed): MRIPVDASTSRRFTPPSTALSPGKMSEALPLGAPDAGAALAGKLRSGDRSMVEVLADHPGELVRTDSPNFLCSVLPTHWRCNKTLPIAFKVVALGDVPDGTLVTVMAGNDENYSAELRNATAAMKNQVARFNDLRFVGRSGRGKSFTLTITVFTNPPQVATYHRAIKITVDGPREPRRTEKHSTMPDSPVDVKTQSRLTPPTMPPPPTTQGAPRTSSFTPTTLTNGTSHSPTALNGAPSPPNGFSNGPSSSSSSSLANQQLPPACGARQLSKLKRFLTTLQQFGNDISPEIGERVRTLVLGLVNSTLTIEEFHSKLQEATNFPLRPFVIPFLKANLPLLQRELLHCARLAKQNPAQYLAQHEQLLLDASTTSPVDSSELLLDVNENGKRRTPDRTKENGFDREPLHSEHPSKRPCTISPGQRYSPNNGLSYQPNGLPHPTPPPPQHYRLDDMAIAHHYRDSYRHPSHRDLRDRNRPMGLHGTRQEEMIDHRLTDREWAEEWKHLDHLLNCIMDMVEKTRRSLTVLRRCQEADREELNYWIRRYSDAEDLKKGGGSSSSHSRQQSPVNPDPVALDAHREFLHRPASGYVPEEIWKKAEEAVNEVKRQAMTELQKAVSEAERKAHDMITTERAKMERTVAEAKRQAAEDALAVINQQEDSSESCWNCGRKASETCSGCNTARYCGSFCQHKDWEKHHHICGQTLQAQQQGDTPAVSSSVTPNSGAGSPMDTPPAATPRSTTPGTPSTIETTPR

transduced Kasumi-1 cells positive for CD13 expression (flow cytometry) [1] [%]	transduced Kasumi-1 cells positive for annexin staining (flow cytometry) [1] [%]	transduced Kasumi-1 cells positive for CD13 expression (flow cytometry) [2] [%]	transduced Kasumi-1 cells positive for annexin staining (flow cytometry) [2] [%]	Substance
87	97	–	–	ETO-interacting domain of N-CoR (NCoREID) fused with enhanced green fluorescent protein
–	–	89	97	zinc-finger domains of ETO (ETOZn) fused with enhanced green fluorescent protein (from UniProt Q06455 510-556)
